T1: Bl_Endo85 (Bifidobacterium longum, UniProt Q8G4P3)
T1 sequence (Q8G4P3 38-937): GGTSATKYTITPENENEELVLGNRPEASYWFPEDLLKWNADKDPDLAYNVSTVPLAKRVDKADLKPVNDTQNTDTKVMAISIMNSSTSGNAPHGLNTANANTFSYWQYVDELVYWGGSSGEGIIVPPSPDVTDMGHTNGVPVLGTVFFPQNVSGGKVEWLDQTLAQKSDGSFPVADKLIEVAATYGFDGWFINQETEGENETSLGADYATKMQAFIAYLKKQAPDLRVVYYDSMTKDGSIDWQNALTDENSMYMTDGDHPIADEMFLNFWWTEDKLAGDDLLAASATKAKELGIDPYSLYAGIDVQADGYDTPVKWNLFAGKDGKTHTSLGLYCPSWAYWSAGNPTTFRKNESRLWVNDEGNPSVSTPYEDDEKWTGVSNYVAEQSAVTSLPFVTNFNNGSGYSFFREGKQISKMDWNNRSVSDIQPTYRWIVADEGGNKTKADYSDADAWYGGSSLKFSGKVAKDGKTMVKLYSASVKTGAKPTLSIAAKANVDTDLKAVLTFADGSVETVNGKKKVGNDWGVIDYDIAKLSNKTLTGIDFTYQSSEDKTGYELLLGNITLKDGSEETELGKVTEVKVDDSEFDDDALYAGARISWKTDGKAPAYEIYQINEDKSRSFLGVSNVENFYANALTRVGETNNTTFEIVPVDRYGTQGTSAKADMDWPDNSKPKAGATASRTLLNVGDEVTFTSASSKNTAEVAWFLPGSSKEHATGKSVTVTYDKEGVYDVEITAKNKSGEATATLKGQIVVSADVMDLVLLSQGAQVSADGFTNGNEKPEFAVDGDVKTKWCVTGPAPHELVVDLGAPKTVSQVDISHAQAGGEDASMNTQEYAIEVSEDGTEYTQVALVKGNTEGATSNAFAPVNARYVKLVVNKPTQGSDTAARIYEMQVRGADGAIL

T2: Bl_Man38B (Bifidobacterium longum, UniProt Q8G4Q0)
T2 sequence (Q8G4Q0 1-1046): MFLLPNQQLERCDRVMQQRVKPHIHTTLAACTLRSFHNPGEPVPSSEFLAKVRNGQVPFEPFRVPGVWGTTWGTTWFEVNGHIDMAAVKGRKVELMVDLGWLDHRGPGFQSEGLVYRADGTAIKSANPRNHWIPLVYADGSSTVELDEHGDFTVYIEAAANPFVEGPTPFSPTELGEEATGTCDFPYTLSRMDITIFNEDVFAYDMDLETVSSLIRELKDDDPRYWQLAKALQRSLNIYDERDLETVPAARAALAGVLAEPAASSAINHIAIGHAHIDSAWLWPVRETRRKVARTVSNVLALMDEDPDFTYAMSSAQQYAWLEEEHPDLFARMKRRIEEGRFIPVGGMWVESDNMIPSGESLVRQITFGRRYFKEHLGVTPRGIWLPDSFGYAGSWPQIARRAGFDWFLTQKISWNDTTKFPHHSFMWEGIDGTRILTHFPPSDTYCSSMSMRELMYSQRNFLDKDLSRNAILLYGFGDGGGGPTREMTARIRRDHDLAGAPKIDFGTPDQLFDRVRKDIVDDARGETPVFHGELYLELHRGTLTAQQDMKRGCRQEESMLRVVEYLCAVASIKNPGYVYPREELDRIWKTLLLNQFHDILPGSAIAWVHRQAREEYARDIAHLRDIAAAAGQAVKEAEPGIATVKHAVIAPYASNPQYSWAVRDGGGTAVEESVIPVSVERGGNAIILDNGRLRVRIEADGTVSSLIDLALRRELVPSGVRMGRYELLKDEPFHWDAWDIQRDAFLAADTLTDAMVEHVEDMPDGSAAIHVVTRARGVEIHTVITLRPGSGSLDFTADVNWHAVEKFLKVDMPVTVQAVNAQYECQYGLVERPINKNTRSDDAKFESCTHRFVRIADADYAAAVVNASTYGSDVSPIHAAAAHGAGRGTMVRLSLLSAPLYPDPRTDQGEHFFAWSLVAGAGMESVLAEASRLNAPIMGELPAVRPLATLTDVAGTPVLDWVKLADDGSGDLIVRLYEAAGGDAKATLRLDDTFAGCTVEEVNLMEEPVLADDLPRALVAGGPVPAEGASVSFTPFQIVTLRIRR

B1: Bl_Man38A, GH38 α-mannosidase from Bifidobacterium longum NCC2705 (enzyme)
chain: MFLKPEQQLERCRRIVRQRVDPHIHPSIAQLTVESYDIPGEPMPSDEFFAKLDRGDIDFKPFMLGSEWGTTWGTVWFRLTGTVPAGYPKGKPLELILDLGWYPHSCGGHIEGLVYRADGTAIKAVHPLNYWVPFMDAEGNAQVPVAEDGSFTLYLEAASNPLLLGVPPFIETELGDHATGKPDEPYVFKSADLAEFDERYENYSVDLDVVSSLMEFADKQSPRYWQLAKALQRSLNAYDERNPESVEAARAVLAGVLAKPANASAMNVSAIGHAHIDSAWLWPVRETRRKVARTVSNALALMDADPDFKYAMSSAQQYAWLEEDHPDIFKRMKRRIEEGRFIPVGGMWVEADGMLPAGESLIRQIAYGRKYFKEHLGVEPKGVWLPDSFGYTGAWPQIARRAGYEWFLTQKISWNDTTKFPHHSFMWEGIDGSRIFTHFPPADTYAAWCKVQELDYAEKNFQDKDLSDRSLLLFGFGDGGGGPTRNMMEHLHRYENLEGVSKVSIEEPNDFFDKAHQQLAENAGPEMPVWKGELYLELHRGTLTSQQDMKRGCRQEESLLRTVEYLGAAAVLSDPEYVYPREELDRIWKTLLLNQFHDILPGSAIAWVHREAREDYRRDLKRLAEIAQDMCAVLRKANPQADLLAEARISQFRNDGASWHANRINEPTDALSVLTQTLDNGRVLLANGVLSVTIEADGTISSLLDEEHGRELVPAGTRLGQYELLRDEPAVWDAWEIERESLLMANAVTGSIESVNTENGAAQVHVHTADGDTVITTTITLRPGSHTLDFHADIDWHERERFLKVDLPLGIVADQATYDCQYGLIRRPIVKNTASDEAKYESSTNRFAIIGDAGYAAAVINGSVYGSDASPIAGNAAEGRDSGTMFRLSLLSAPTFPDPRTDIGSHEFDWSVVADATVDRALDAAGVLNAPVLHDVPDITPLASIESVNGTVVLDWMKLADDGSGDLIVRAYEAAGGQADAMLHVCPALAGASVHETNVLEGDDLAADLPVALQDGRQNAEGATLHFGPFQLATLRITR
B2: Bl_Man38B, GH38 α-mannosidase from Bifidobacterium longum NCC2705 (enzyme)
chain: T2 sequence (Q8G4Q0 1-1046)
B3: Bl_Man38C, GH38 α-mannosidase from Bifidobacterium longum NCC2705 (enzyme)
chain: MLLKVNREIDRCKRVMRERVWPHIHQVLAQCTVGAVKNPGEPEMPAAFITRAVSGQVIFQPLAVGEPWGTSWGTTWIRVEGQLPETLPEGRAIELVFNLGWLEWPVGGHIEAMAYRADGTVIKALHPRNHWMPLVSADGVKDRVVNPDGSFVVYVEGAYNPNVPSFTVTELGTKPTGKADERYEFSSIDIAALDQDMFDYWADLDVVTGSLENMNDADPRYWKLAKAMQRSINLWDEKDYNTLALARKALDKVMHNPANASAMTLTAMGHSHIDSAWLWPVRETERKVGRTVSNALALMDIDPDFTYVMSAAQHFAWLEERHPDLFERVKARIAEGRFIPVGGMWVESDGTMPCGESLIRQISYGKRYFKEKLGVVPNGIWLPDSFGYTGAWPQIAKRSGYSWFLTQKLCWNDTTRLPHHSFMWEGVDGSQIFTHFPPADKYDSDMSANDMAYVQSNYKDKDLSDRGILLFGYGDGGGGPIREMTMREHRFESFEGMPKVEYGTPDDFFSKAETEMKAEAGSEMPRWKGEFYFELHRKTLTSQQEMKRGCRKEESMLRTVEYLGVVASLESADYVYPTERIDRIWKTLLLSQFHDILPGSAIEWAHRVAREEYARDLKALSDIARDAIAAIAVANPDVARIAKARISQFADVDPWRPASLVSCGEPVEVNRREDGSATLDNGLLCVHVAADGTVDSMIDLKSGREMVAKDHVMGRYEILKDEPGVFDAWDVERDAFLCATALADGHIVSIETTADGSAVIVTKNSYRDDEISTTITLRPGKSQLDFHADVEWNVPEKLLKVDIPMALSASRAQYECQYGLIERPIVKNTEGEEAMFESCSHRFVRIHDSSYGIGVANGSTYGSDVSSLRDRDDALAGTMVRMSLVAAPTAPDPRTDIGHHEFDWTVLPCASVAPLVAAAGEINAPTIENMPDIAAPITLEPIEGTPVIDWIKLADDGSGDIVARLYEAAGAKAKAMLHVGGTLDGWTVRETNTLEQDESYPDEPAGLIGGKQQAEGAELALNPFQLTTLRLSRA

What was measured:
[1] = target: T1, Bl_Endo85; test: LC-MS; type: biochemical; details: 150 mM ammonium acetate pH 5.0, 37 °C, 16 h; product Man9GlcNAc
[2] = target: T2, Bl_Man38B; test: LC-MS hydrolysis kinetics; type: biochemical; details: pH 5.5, 37 °C, 0.1 mM CoCl2
[3] = target: the molecule itself; test: cryo-EM structure

Molecule	stoichiometry N [3]	also measured
CC(=O)N[C@@H]1[C@@H](O)[C@H](O[C@@H]2O[C@H](CO)[C@@H](O[C@@H]3O[C@H](CO[C@H]4O[C@H](CO[C@H]5O[C@H](CO)[C@@H](O)[C@H](O)[C@@H]5O[C@H]5O[C@H](CO)[C@@H](O)[C@H](O)[C@@H]5O)[C@@H](O)[C@H](O[C@H]5O[C@H](CO)[C@@H](O)[C@H](O)[C@@H]5O[C@H]5O[C@H](CO)[C@@H](O)[C@H](O)[C@@H]5O)[C@@H]4O)[C@@H](O)[C@H](O[C@H]4O[C@H](CO)[C@@H](O)[C@H](O)[C@@H]4O[C@H]4O[C@H](CO)[C@@H](O)[C@H](O)[C@@H]4O[C@H]4O[C@H](CO)[C@@H](O)[C@H](O)[C@@H]4O)[C@@H]3O)[C@H](O)[C@H]2NC(C)=O)[C@@H](CO)O[C@H]1NC(=O)C[C@H](N)C(=O)O [Man9GlcNAc2-Asn]		LC-MS [1]: Reactions of Bl_Endo85 against Man5GlcNAc2-Asn (e) and Man9GlcNAc2-Asn (g)
OC[C@H]1O[C@H](O[C@H]2[C@H](O)[C@@H](CO)OC(O)[C@H]2O)[C@@H](O)[C@@H](O)[C@@H]1O (stereo partly drawn) [α-1,3-mannobiose]		Km [2]: Bl_Man38B was efficient over the three disaccharides
B1	4	
B2	4	
B3	4	

From paper PMC10367113 (Nature chemical biology, 2022)
